Data: the RNAGym collection of RNA variant scans (doi:10.7554/elife.80360)

B1: HDV Ribozyme (parent)
chain: GGCCGGCAUGGUCCCAGCCUCCUCGCUGGCGCCGGCUGGGCAACAUUCCGAGGGGACCGUCCCCUCGGUAAUGGCGAAUGGGACCCA

Variants of: B1
Assay: self-cleavage, relative activity (ratio to wild type); higher = more cleavage; co-transcriptional

Variant | self-cleavage
GGCCGGCAUGGUCCCAGCCUCCUCGCUGGCGCCGGCUGGGCAACAUUCCGAGGGGACCGUCCCCUCGGUGAUGGCGCAUGGGACCCA | 0.178
GGCCGGCAUGGUCCCAGCCUCCUCGCUGGCGCCGGCUGGGCAACAUUCCGAGGGGACCGUCCCCUCGGUGAUGGCGUAUGGGACCCA | 0.426
GGCCGGCAUGGUCCCAGCCUCCUCGCUGGCGCCGGCUGGGCAACAUUCCGAGGGGACCGUCCCCUCGGGAAUAGCGAAUGGGACCCA | 0.746
GGCCGGCAUGGUCCCAGCCUCCUCGCUGGCGCCGGCUGGGCAACAUUCCGAGGGGACCGUCCCCUCGGGAAUCGCGAAUGGGACCCA | 0.665
GGCCGGCAUGGUCCCAGCCUCCUCGCUGGCGCCGGCUGGGCAACAUUCCGAGGGGACCGUCCCCUCGGGAAUGGCGAAUGGGACCCC | 0.822
GGCCGGCAUGGUCCCAGCCUCCUCGCUGGCGCCGGCUGGGCAACAUUCCGAGGGGACCGUCCCCUCGGGAAUGGCGAAUGGGAACCA | 0.779
GGCCGGCAUGGUCCCAGCCUCCUCGCUGGCGCCGGCUGGGCAACAUUCCGAGGGGACCGUCCCCUCGGGAAUGGCGAAUGGGAUCCA | 0.554
GGCCGGCAUGGUCCCAGCCUCCUCGCUGGCGCCGGCUGGGCAACAUUCCGAGGGGACCGUCCCCUCGGUCAUGGCAAAUGGGACCCA | 0.96
GGCCGGCAUGGUCCCAGCCUCCUCGCUGGCGCCGGCUGGGCAACAUUCCGAGGGGACCGUCCCCUCGGUCAUGGCCAAUGGGACCCA | 0.796
GGCCGGCAUGGUCCCAGCCUCCUCGCUGGCGCCGGCUGGGCAACAUUCCGAGGGGACCGUCCCCUCGGUCAUGGCGAAUGGGACCCU | 1.04
GGCCGGCAUGGUCCCAGCCUCCUCGCUGGCGCCGGCUGGGCAACAUUCCGAGGGGACCGUCCCCUCGGUCAUGGCGAAUGGGACCCC | 0.831
GGCCGGCAUGGUCCCAGCCUCCUCGCUGGCGCCGGCUGGGCAACAUUCCGAGGGGACCGUCCCCUCGGUCAUGGCGAAUGGGACCCG | 0.858
GGCCGGCAUGGUCCCAGCCUCCUCGCUGGCGCCGGCUGGGCAACAUUCCGAGGGGACCGUCCCCUCGGUGAUGGCGACUGGGACCCA | 0.151
GGCCGGCAUGGUCCCAGCCUCCUCGCUGGCGCCGGCUGGGCAACAUUCCGAGGGGACCGUCCCCUCGGUGAUGGCGAGUGGGACCCA | 0.655
GGCCGGCAUGGUCCCAGCCUCCUCGCUGGCGCCGGCUGGGCAACAUUCCGAGGGGACCGUCCCCUCGGUGAUGGCGAAUGGGGCCCA | 0.692
GGCCGGCAUGGUCCCAGCCUCCUCGCUGGCGCCGGCUGGGCAACAUUCCGAGGGGACCGUCCCCUCGGUGAUGGCGAAUGGGUCCCA | 0.511
GGCCGGCAUGGUCCCAGCCUCCUCGCUGGCGCCGGCUGGGCAACAUUCCGAGGGGACCGUCCCCUCGGUCAUGGCGAAUGGAACCCA | 0.181
GGCCGGCAUGGUCCCAGCCUCCUCGCUGGCGCCGGCUGGGCAACAUUCCGAGGGGACCGUCCCCUCGGUCAUGGCGAAUGGCACCCA | 0
GGCCGGCAUGGUCCCAGCCUCCUCGCUGGCGCCGGCUGGGCAACAUUCCGAGGGGACCGUCCCCUCGGGACUGGCGAAUGGGACCCA | 0.575
GGCCGGCAUGGUCCCAGCCUCCUCGCUGGCGCCGGCUGGGCAACAUUCCGAGGGGACCGUCCCCUCGGGAUUGGCGAAUGGGACCCA | 0.974
GGCCGGCAUGGUCCCAGCCUCCUCGCUGGCGCCGGCUGGGCAACAUUCCGAGGGGACCGUCCCCUCGGUCAGGGCGAAUGGGACCCA | 0.185
GGCCGGCAUGGUCCCAGCCUCCUCGCUGGCGCCGGCUGGGCAACAUUCCGAGGGGACCGUCCCCUCGGUCAAGGCGAAUGGGACCCA | 0.653

Variant | self-cleavage
GGCCGGCAUGGUCCCAGCCUCCUCGCUGGCGCCGGCUGGGCAACAUUCCGAGGGGACCGUCCCCUCGGGAAUGGCGAAAGGGACCCA | 0.935
GGCCGGCAUGGUCCCAGCCUCCUCGCUGGCGCCGGCUGGGCAACAUUCCGAGGGGACCGUCCCCUCGGUGAUGGCGAAUGGGACCCU | 0.928
GGCCGGCAUGGUCCCAGCCUCCUCGCUGGCGCCGGCUGGGCAACAUUCCGAGGGGACCGUCCCCUCGGUGAUGGCGAAUGGGACCCC | 0.883
GGCCGGCAUGGUCCCAGCCUCCUCGCUGGCGCCGGCUGGGCAACAUUCCGAGGGGACCGUCCCCUCGGGAAUGGCGAAUGGGACGCA | 1.01
GGCCGGCAUGGUCCCAGCCUCCUCGCUGGCGCCGGCUGGGCAACAUUCCGAGGGGACCGUCCCCUCGGGAAUGGCGAAUGGGACACA | 1.18
GGCCGGCAUGGUCCCAGCCUCCUCGCUGGCGCCGGCUGGGCAACAUUCCGAGGGGACCGUCCCCUCGGUCAUGGGGAAUGGGACCCA | 0.0615
GGCCGGCAUGGUCCCAGCCUCCUCGCUGGCGCCGGCUGGGCAACAUUCCGAGGGGACCGUCCCCUCGGUCAUGGUGAAUGGGACCCA | 0.0875
GGCCGGCAUGGUCCCAGCCUCCUCGCUGGCGCCGGCUGGGCAACAUUCCGAGGGGACCGUCCCCUCGGUCAUGGCGAAUGGGACGCA | 1.2
GGCCGGCAUGGUCCCAGCCUCCUCGCUGGCGCCGGCUGGGCAACAUUCCGAGGGGACCGUCCCCUCGGUCAUGGCGAAUGGGACUCA | 1.07
GGCCGGCAUGGUCCCAGCCUCCUCGCUGGCGCCGGCUGGGCAACAUUCCGAGGGGACCGUCCCCUCGGUCAUGCCGAAUGGGACCCA | 0.262
GGCCGGCAUGGUCCCAGCCUCCUCGCUGGCGCCGGCUGGGCAACAUUCCGAGGGGACCGUCCCCUCGGUCAUGACGAAUGGGACCCA | 0.308
GGCCGGCAUGGUCCCAGCCUCCUCGCUGGCGCCGGCUGGGCAACAUUCCGAGGGGACCGUCCCCUCGGUGAUGGCGAAUGGGACCCA | 0.969
GGCCGGCAUGGUCCCAGCCUCCUCGCUGGCGCCGGCUGGGCAACAUUCCGAGGGGACCGUCCCCUCGGUCAUGGCGAAUGGGACCCA | 0.894
GGCCGGCAUGGUCCCAGCCUCCUCGCUGGCGCCGGCUGGGCAACAUUCCGAGGGGACCGUCCCCUCGGGAAUGGCGCAUGGGACCCA | 0.369
GGCCGGCAUGGUCCCAGCCUCCUCGCUGGCGCCGGCUGGGCAACAUUCCGAGGGGACCGUCCCCUCGGCAAUGGCGAAGGGGACCCA | 1.16
GGCCGGCAUGGUCCCAGCCUCCUCGCUGGCGCCGGCUGGGCAACAUUCCGAGGGGACCGUCCCCUCGGUCAUAGCGAAUGGGACCCA | 0.407
GGCCGGCAUGGUCCCAGCCUCCUCGCUGGCGCCGGCUGGGCAACAUUCCGAGGGGACCGUCCCCUCGGUCAUCGCGAAUGGGACCCA | 0.514
GGCCGGCAUGGUCCCAGCCUCCUCGCUGGCGCCGGCUGGGCAACAUUCCGAGGGGACCGUCCCCUCGGUCAUUGCGAAUGGGACCCA | 0.302
GGCCGGCAUGGUCCCAGCCUCCUCGCUGGCGCCGGCUGGGCAACAUUCCGAGGGGACCGUCCCCUCGGUCAUGGCGAAUGAGACCCA | 0.453
GGCCGGCAUGGUCCCAGCCUCCUCGCUGGCGCCGGCUGGGCAACAUUCCGAGGGGACCGUCCCCUCGGUCAUGGCGAAUGUGACCCA | 0.249
GGCCGGCAUGGUCCCAGCCUCCUCGCUGGCGCCGGCUGGGCAACAUUCCGAGGGGACCGUCCCCUCGGUCAUGGCGAAUGGGACCGA | 1.35
GGCCGGCAUGGUCCCAGCCUCCUCGCUGGCGCCGGCUGGGCAACAUUCCGAGGGGACCGUCCCCUCGGGAAUGGCGAUUGGGACCCA | 0.277

Variant | self-cleavage
GGCCGGCAUGGUCCCAGCCUCCUCGCUGGCGCCGGCUGGGCAACAUUCCGAGGGGACCGUCCCCUCGGGAAUGGCAAAUGGGACCCA | 0.855
GGCCGGCAUGGUCCCAGCCUCCUCGCUGGCGCCGGCUGGGCAACAUUCCGAGGGGACCGUCCCCUCGGUCAUGGCGACUGGGACCCA | 0.208
GGCCGGCAUGGUCCCAGCCUCCUCGCUGGCGCCGGCUGGGCAACAUUCCGAGGGGACCGUCCCCUCGGUCAUGGCGGAUGGGACCCA | 0.808
GGCCGGCAUGGUCCCAGCCUCCUCGCUGGCGCCGGCUGGGCAACAUUCCGAGGGGACCGUCCCCUCGGUCAUGGCGCAUGGGACCCA | 0.244
GGCCGGCAUGGUCCCAGCCUCCUCGCUGGCGCCGGCUGGGCAACAUUCCGAGGGGACCGUCCCCUCGGGAAUGGCGAAUGGAACCCA | 0.453
GGCCGGCAUGGUCCCAGCCUCCUCGCUGGCGCCGGCUGGGCAACAUUCCGAGGGGACCGUCCCCUCGGUCAUGGCGAAUGGGAUCCA | 0.594
GGCCGGCAUGGUCCCAGCCUCCUCGCUGGCGCCGGCUGGGCAACAUUCCGAGGGGACCGUCCCCUCGGUCAUGGCGAAUGGGAACCA | 0.646
GGCCGGCAUGGUCCCAGCCUCCUCGCUGGCGCCGGCUGGGCAACAUUCCGAGGGGACCGUCCCCUCGGUCAUGGCGAAGGGGACCCA | 0.554
GGCCGGCAUGGUCCCAGCCUCCUCGCUGGCGCCGGCUGGGCAACAUUCCGAGGGGACCGUCCCCUCGGUCAUGGCGAAAGGGACCCA | 0.72
GGCCGGCAUGGUCCCAGCCUCCUCGCUGGCGCCGGCUGGGCAACAUUCCGAGGGGACCGUCCCCUCGGGAAUGGCGAAUGGGCCCCA | 0.554
GGCCGGCAUGGUCCCAGCCUCCUCGCUGGCGCCGGCUGGGCAACAUUCCGAGGGGACCGUCCCCUCGGGAAUGGCGAAUGGGUCCCA | 0.465
GGCCGGCAUGGUCCCAGCCUCCUCGCUGGCGCCGGCUGGGCAACAUUCCGAGGGGACCGUCCCCUCGGGAAUGGUGAAUGGGACCCA | 0.0615
GGCCGGCAUGGUCCCAGCCUCCUCGCUGGCGCCGGCUGGGCAACAUUCCGAGGGGACCGUCCCCUCGGGAAUGGCGAAUAGGACCCA | 0.233
GGCCGGCAUGGUCCCAGCCUCCUCGCUGGCGCCGGCUGGGCAACAUUCCGAGGGGACCGUCCCCUCGGGAAUGGCGAAUUGGACCCA | 0.31
GGCCGGCAUGGUCCCAGCCUCCUCGCUGGCGCCGGCUGGGCAACAUUCCGAGGGGACCGUCCCCUCGGGAAUGCCGAAUGGGACCCA | 0.383
GGCCGGCAUGGUCCCAGCCUCCUCGCUGGCGCCGGCUGGGCAACAUUCCGAGGGGACCGUCCCCUCGGGAAGGGCGAAUGGGACCCA | 0.997
GGCCGGCAUGGUCCCAGCCUCCUCGCUGGCGCCGGCUGGGCAACAUUCCGAGGGGACCGUCCCCUCGGUCAUGGCGAAUGGGGCCCA | 0.543
GGCCGGCAUGGUCCCAGCCUCCUCGCUGGCGCCGGCUGGGCAACAUUCCGAGGGGACCGUCCCCUCGGUCAUGGCGAAUGGGCCCCA | 0.434
GGCCGGCAUGGUCCCAGCCUCCUCGCUGGCGCCGGCUGGGCAACAUUCCGAGGGGACCGUCCCCUCGGGAAUGGCGAAUGUGACCCA | 0.374
GGCCGGCAUGGUCCCAGCCUCCUCGCUGGCGCCGGCUGGGCAACAUUCCGAGGGGACCGUCCCCUCGGGAAUGGCGAAUGCGACCCA | 0.101
